The source of these data is publication PMC6004067 (Genes & Development, 2018).

Conditions in all cases: both partners purified
The target in assay [1] is T1, GST-TBP, GST-tagged full-length human TBP (human, UniProt P20226 1-339).
T1 construct: human TBP, full length
Put plainly: pull-down; GST pull-down: GST-TBP, GST-TFIIB or TBP fragments on glutathione beads; analytes in buffer B2 (150 mM NaCl), 1 h at 4°C, four washes, Western blot.

The target of assay [2] is T2, TATA-box-binding protein (TBP), full-length human (human, UniProt P20226 1-339).
T2 construct: human TBP, full length; Two preparations of free TBP are described (Flag/His double-tagged; GST-TBP cleaved with thrombin); also called wild-type TBP; source: E. coli BL21 (DE3), purified (Ni-NTA as Flag- and His-tagged protein, or cut with thrombin from GST-TBP)
Put plainly: pull-down; Flag-tagged TFIIB or its mutants immobilized on Flag beads; TBP or SNAPc as analyte; buffer B2, 1 h at 4°C, four washes, Western blot. In general terms: Immunoblotting shows a protein as a band on a membrane.

The target of assay [3] is T2, TATA-box-binding protein (TBP), …. Put plainly: pull-down; GST pull-down: GST-TBP, GST-TFIIB or TBP fragments on glutathione beads; analytes in buffer B2 (150 mM NaCl), 1 h at 4°C, four washes, Western blot.

Changes are numbered by the printed parent chain. In names and notes the source's numbering stands.

T2 sequence (P20226 whole entry): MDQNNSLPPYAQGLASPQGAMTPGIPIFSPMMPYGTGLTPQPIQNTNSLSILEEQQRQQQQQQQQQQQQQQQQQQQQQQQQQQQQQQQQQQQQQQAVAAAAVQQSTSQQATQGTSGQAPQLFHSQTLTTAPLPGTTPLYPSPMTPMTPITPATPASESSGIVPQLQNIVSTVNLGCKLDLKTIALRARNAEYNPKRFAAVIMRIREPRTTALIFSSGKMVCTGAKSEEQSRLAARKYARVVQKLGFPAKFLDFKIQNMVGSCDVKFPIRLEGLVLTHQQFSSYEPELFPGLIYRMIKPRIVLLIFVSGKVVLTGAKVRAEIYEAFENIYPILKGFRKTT
T1 sequence (P20226 whole entry): as above

B1: TFIIB, full-length human, Flag- and His-tagged (natural protein, UniProt Q00403 1-316, looked up)
chain: MASTSRLDALPRVTCPNHPDAILVEDYRAGDMICPECGLVVGDRVIDVGSEWRTFSNDKATKDPSRVGDSQNPLLSDGDLSTMIGKGTGAASFDEFGNSKYQNRRTMSSSDRAMMNAFKEITTMADRINLPRNIVDRTNNLFKQVYEQKSLKGRANDAIASACLYIACRQEGVPRTFKEICAVSRISKKEIGRCFKLILKALETSVDLITTGDFMSRFCSNLCLPKQVQMAATHIARKAVELDLVPGRSPISVAAAAIYMASQASAEKRTQKEIGDIAGVADVTIRQSYRLIYPRAPDLFPTDFKFDTPVDKLPQL
notes: human TFIIB, full length; also called Flag-tagged TFIIB; wild-type TFIIB; source: E. coli BL21 (DE3), purified (Ni-NTA)
As to B1, the binding result in assay [1] and in assay [2] was “binds” in each case.

B2: GST-TFIIB (natural protein, human, UniProt Q00403 1-316, looked up)
chain: B1 chain
notes: TFIIB fused to GST
In the case of B2, the binding result in assay [3] is reported as “binds”.

B3: TFIIB R169E, Flag-tagged (natural protein, human, UniProt Q00403 1-316, looked up)
chain: B1 chain with R169E
notes: human TFIIB with a single R169E substitution; Probably made as the full-length parent
In the case of B3, the binding result in assay [2] is “binds”.

B4: TFIIB R169E/K188E, Flag-tagged (natural protein, human, UniProt Q00403 1-316, looked up)
chain: B1 chain with R169E, K188E
notes: human TFIIB with the double R169E/K188E substitution; Probably made as the full-length parent; also called double substitution
Turning to B4, the binding result in assay [2] is reported as “binds”.
